Reference: patent publication US20240026407A1, “MODIFICATION OF SAPONINS” (GLAXOSMITHKLINE BIOLOGICALS SA, priority 2020, published 2024)

Experiments:
[1] = Example 10: derhamnosylation of saponins in crude bark extract (50%) using WT and engineered rhamnosidases R1 to R5; assay type: biochemical, Quillaja saponaria; details: 7 h, 50% CBE, 35 degC; for % Right Peak: starting CBE 26; for % Left Peak: starting CBE 30; for % Middle Peak: starting CBE 44
Experimental: Lyophilised powders from clarified cell lysate expressing glucosidases (from Example 8 WT glucosidase and engineered glucosidase polypeptides G1 to G5) and rhamnosidases (from Example 9 WT rhamnosidase and engineered rhamnosidase polypeptides R1 to R5) were dissolved in 200 mM sodium acetate aqueous solution at pH 5.8 to prepare the enzyme solutions at 4 fold the final reaction concentration as shown in Tables 19 and 20.
Each rhamnosidase solution was combined with an equal volume of 200 mM sodium acetate aqueous solution at pH 5.8 and separately with an equal volume of 200 mM sodium acetate aqueous solution at pH 5.8 containing 2 mg/ml glucosidase G5. This is a sufficient loading of glucosidase to effect complete hydrolysis of the relevant glucose moiety within 4 hours.
CBE was adjusted to pH of 6.0 to 6.2 with 2M sodium hydroxide and an equal volume added to the enzyme solution to prepare the reaction mix (i.e. 50% CBE concentration in reaction mix) and the concentration of glucosidase and/or rhamnosidase is shown in Tables 19 and 20. The reaction mix was heated to 35 degC for the time indicated in Tables 19 and 20, after which the reaction was quenched by addition of an equal volume of MeCN containing 2% acetic acid and shaken at room temperature for 10 mins prior to centrifugation (10 min, 4 degC) to remove particulates. Samples were analysed by UV HPLC using method of Experiment 4-4.
The change in composition of the Left, Middle and Right peaks is shown in Tables 19 and 20. The composition changes by the action of the enzymes depending on the presence or absence of the partner enzyme. The extent of reaction is proportional to the enzyme concentration and the reaction time under these conditions. The tables show data for enzyme concentrations and the reaction times providing for equivalent extents of reaction. The improvement resulting from the mutations introduced for each variant is equal to the fold change in enzyme concentration×time (i.e. fold improvement=(enzyme concentration×time) for preceding variant÷(enzyme concentration×time) for later variant). A cumulative fold improvement over the original enzyme variant is calculated by the product of the individual fold improvements.

[2] = Example 9: screening of rhamnosidase variants for derhamnosylation of saponins in crude bark extract; assay type: biochemical, Quillaja saponaria; details: R1 round: 20 deg C, 22 h, lysate 1.25% v/v, CBE 80% v/v, 100 mM Potassium phosphate pH 6
Experimental: Libraries of genetic variants encoding mutations in the wild type Kribbella flavida rhamnosidase (SEQ ID No. 1017) were prepared using molecular biology techniques, enzymes were prepared linked to a C-terminally located His-tag. Single monoclonal colonies were grown in 400 ul of expression medium and protein expressed. Cell pellets were lysed in 200 ul of the relevant buffer (Table 17).
Lysate was diluted appropriately in the relevant buffer to allow a lysate loading of the indicated % loading (1% loading corresponds to use of 2 ul original lysate in a 200 ul reaction).
Crude bark extract (CBE) obtained by aqueous extraction of Quillaja saponaria and containing at least 2.80 mg/ml QS-21 (by HPLC-UV) was adjusted to pH 6 by dropwise addition of 2M NaOH with stirring. The relevant concentration of the relevant glucosidase was added. The appropriate relative volume of pH 6 CBE (160 ul (for 80%) or 150 ul (for 75%)) was added to each well of the reaction plate. The reaction plate was sealed and incubated at the relevant temperature and time.
The reaction plate was quenched by adding 200 uL of MeCN (2% AcOH, 1 mg/mL hexanophenone) to each well of the plates. The quenched reaction plate was re-sealed and incubated at 20 deg C. with shaking for 10 min. The reaction plate was then centrifuged (10 min, 4 degC).
200 uL was transferred from each well of the quenched plate to the corresponding wells of a fresh 96 well plate and sealed. The plate was analysed by UV HPLC with the method described in Example 4.
Three key peaks of interest are apparent using this chromatography: Left Peak (retention time approximately 2.30-2.35 min) comprising mainly QS-17 family components; Middle Peak (retention time approximately 2.37-2.42 min) comprising mainly QS-18 family components and desglucosyl-QS-17 family components; and Right Peak (retention time approximately 2.44-2.50 min) comprising mainly QS-21 family components. Peak identity was supported by MS/MS.
Enzyme activity is calculated as the % conversion of the Left Peak present in the crude bark extract: […]

[3] = rhamnosidase 2.5 mg/ml + glucosidase G5 0.5 mg/ml
[4] = rhamnosidase 2.5 mg/ml, no glucosidase

B1: Variant R1: engineered rhamnosidase polypeptide, variant of Kribbella flavida rhamnosidase SEQ ID No. 1017 (protein)
chain: MSFPAAPARLRFEHRTDPGPVLGIGTATPRLSWQVPTAPDDYRQAGYEVEIARGDAAPEQYTVDSADQVLVPWPGTPLAARESATVRVRVRGDGDWSQWSDPATVEAGLLSADDWTARFVSPRENAGHEAPAPLIGGVIDLPADIAQARLYATAHGIYEPTLNGTRVGDEQLAPGWTAYEQRLRYQTYDVTDLVAPGENRLELLVGNGWYRGRLGFHGGHSLYGDRLAVLAQLEVTTATGEVKVLASDGTWTTRETNVLADDLYDGQHVDLRRTLGEPGPVDVLDADLSLLVAPDGPPVRVTDVLPAKAVTTSPAGKTLVDFGQNVVGRLRLRVRGGAAGDEIVLRHAEVLEDGELGVRPLRTAKATDSFVLAGPDEVTLEPTLTFHGFRYAEITGVPDLRAEDVEAVVVGSDLRRTGWFESSHPLLDRFHENVVWGMRGNFLDVPTDCPQRDERLGWTGDIQVFSPTASFLFDTAGFLTNWLADLIAEQHKDGSVPFVVPDVLRQPGPATAAWGDAATIVPWVLYERTGDAGLLARQLPSMRAWVDRMAGLAGDDLLWVGGFQFGDWLDPTAPPDDPFRAKADPDVLATAHLARSAEVVALAAEVVGAGELAREYAELAARVRQAFAAEYTTGSGRVLSDAATNYALALQWALLPTEAQRKRAGERLADLVRTAGFRISTGFVGTPLMADALADSGHPDLAYRLLLETGCPSWLYAVTMDATTVWERWDSMLPDGSINPGQMTSFNHYALGAVADWMHRRVAGLAPGDPGYRRIVVDPLFTAHLTKASARHLTPYGEAAVAWSRSGGRVRLEVTVPVGARARVAVPGESAPVEVGHGTHEWTADDVYGETPPLPADATIRQLIDHEPSWTTLAAAATRTGIVADDAELAGRLERYLDHPATELVDAVSPRGFSPSAEALQAELDSVLGR
modifications: Seq ID No. 1017 with mutation K219G
% change in Left Peak [1, 3]: −40%
% change in Middle Peak [1, 3]: −96%
% change in Right Peak [1, 3]: 309%
Cumulative Fold improvement in primary enzyme loading × time [1, 3]: 2
Fold improvement in primary enzyme loading × time [1, 3]: 2.0
% Right Peak [1, 3]: 80%
% Left Peak [1, 3]: 18%
% Middle Peak [1, 3]: 2%
% change in Left Peak [1, 4]: −35%
% change in Middle Peak [1, 4]: 17%
% change in Right Peak [1, 4]: 112%
Cumulative Fold improvement in primary enzyme loading × time [1, 4]: 2
Fold improvement in primary enzyme loading × time [1, 4]: 2.0
% Right Peak [1, 4]: 29%
% Left Peak [1, 4]: 19%
% Middle Peak [1, 4]: 51%
% conversion (Right peak/Left Peak) (−neg control) [2]: 2.74%
Cumulative FIOP from WT ([2]; estimate): 1.7
Right Peak % ([2]; negative control 26.35): 27.08%
Left Peak % ([2]; negative control 29.36): 27.04%
Middle Peak % ([2]; negative control 44.30): 45.89%
% conversion (Right peak/Left Peak) ([2]; negative control 47.30): 50.04%
FIOP (% area increase variant/pos control) ([2]; positive control WT): 1.7
